Entries after “also recorded” stand apart in the source; their conditions may differ.
Key:
H9 hESC = assay: Beating hEB assay (contracting hEB after forced aggregation cardiac differentiation); type: cell-based, human; details: for effect on cardiac differentiation, phase 2 medium: supplement in d0-d2 medium; for effect on cardiac differentiation, phase 2 medium / effect on cardiac differentiation, phase 3 medium: contracting hEB d9; for effect on cardiac differentiation, phase 3 medium: supplement in d2-d4 medium
Text: The cardiac differentiation protocol was divided into four distinct phases for optimization (FIG. 3A): phase 1: uniform undifferentiated growth; phase 2: hEB formation/mesoderm induction; phase 3: hEB cardiac specification; phase 4: contracting cardiomyocyte development. […] After an initial round of optimizations had been completed, optimizations was repeated a second time to account for the new media formulations and then a third time to optimize the final media formulation. In some cases fourth and fifth repeats were performed to improve the statistical power of the results. For each variable tested, the bell-curve distribution of dose-response was determined. Results shown are averages of the 2nd-5th replicates (FIG. 2B).
For forced aggregation hEB differentiations, confluent hESC or hiPSC which had been grown on a commercially available extracellular matrix, Geltrex (Invitrogen) as monolayers for 3 to 13 passages were passaged with TrypLE Select and seeded at 2.5×10^6 per T25 flask. After 24 hours growth, cells were washed with PBS and treated with room temperature TrypLE Select for 1 minute at 37° C. Cells were seeded at 5000 cells per well in 96-well V-bottom uncoated plates (249952, NUNC) in 100 μL per well RPMI+PVA medium consisting of RPMI Media 1640 (with L-Glutamine), 4 mg mL-1 polyvinyl alcohol (P8136, Sigma, dissolved in RPMI at 4° C. for at least 72 hours, mixing by inversion every day), 1% chemically defined lipid concentrate, 10 μg mL-1 recombinant human insulin (Sigma), 400 μM 1-thioglycerol (Sigma), 25 ng mL-1 BMP4 and 5 ng mL-1 FGF2 (both from R&D systems), 1 μM Y-27632 (Calbiochem). This medium is not stable and was made fresh for each experiment. After 48 hours (on day 2) medium was aspirated with a Costar 8-channel aspirator (Corning) and replaced with RPMI+FBS medium consisting RPMI Media 1640, 20% characterized FBS (Hyclone), 400 μM 1-thioglycerol. On day 4 media was changed to RPMI+PVA without growth factors and hEB were transferred to 96-well U-bottom tissue culture treated plates (650180, Greiner Bio-One). Media was changed on d7 and every 3 days afterwards. hEB were visually assessed for contraction on d9 using a Nikon Eclipse Ti inverted tissue culture microscope with a TOKAI-HIT heated stage (Nikon). Images were captured using NIS-Elements (Nikon). […] For traditional cardiac differentiations using FBS, undirected differentiation was performed as previously described (Kehat et al. J Clin Invest 108, 407-414 (2001)): briefly, confluent H9 hESC grown as colonies on MEF were treated with collagenase IV for 5 minutes at 37° C. then washed from the plate using a 5 mL pipette. Cell clusters were then transferred to Petri dishes in 20% FBS medium for 7 days. hEB were then transferred to gelatin coated tissue culture plates. Media was changed every 3 days.
One single replicate consists of one 96-well plate. Repeat replicates were performed 1-4 months apart using a different vial of cells. Each experiment was repeated at least 3 times representing at least 288 hEB. Total number of hEB assessed in this work exceeds 80,000. Wells in which no hEB was detected due to pipeting error were excluded and accounted for approximately 1-5% of wells. P-values were established using unpaired two-tailed Student's t-test.

iPS(IMR90)-1 hiPSC = assay: as above; type: cell-based, human; details: d0-d2
Text: The cardiac differentiation protocol was divided into four distinct phases for optimization (FIG. 3A): phase 1: uniform undifferentiated growth; phase 2: hEB formation/mesoderm induction; phase 3: hEB cardiac specification; phase 4: contracting cardiomyocyte development. A simple beating hEB assay was used to sequentially assess improvements in cardiac differentiation in each of these four phases by counting the number of hEB contracting after nine days of differentiation, a time point that was identified as the day of maximum percentage contraction in the enhanced ‘prototype’ version of the protocol (FIG. 1B). After an initial round of optimizations had been completed, optimizations was repeated a second time to account for the new media formulations and then a third time to optimize the final media formulation. […] For each variable tested, the bell-curve distribution of dose-response was determined. […]
For forced aggregation hEB differentiations, confluent hESC or hiPSC which had been grown on a commercially available extracellular matrix, Geltrex (Invitrogen) as monolayers for 3 to 13 passages were passaged with TrypLE Select and seeded at 2.5×10^6 per T25 flask. […] Media was changed on d7 and every 3 days afterwards. hEB were visually assessed for contraction on d9 using a Nikon Eclipse Ti inverted tissue culture microscope with a TOKAI-HIT heated stage (Nikon). […]

B1: transferrin: bovine transferrin media supplement (protein, UniProt Q29443 20-704, looked up)
Serotransferrin: DPERTVRWCTISTHEANKCASFRENVLRILESGPFVSCVKKTSHMDCIKAISNNEADAVTLDGGLVYEAGLKPNNLKPVVAEFHGTKDNPQTHYYAVAVVKKDTDFKLNELRGKKSCHTGLGRSAGWNIPMAKLYKELPDPQESIQRAAANFFSASCVPCADQSSFPKLCQLCAGKGTDKCACSNHEPYFGYSGAFKCLMEGAGDVAFVKHSTVFDNLPNPEDRKNYELLCGDNTRKSVDDYQECYLAMVPSHAVVARTVGGKEDVIWELLNHAQEHFGKDKPDNFQLFQSPHGKDLLFKDSADGFLKIPSKMDFELYLGYEYVTALQNLRESKPPDSSKDECMVKWCAIGHQERTKCDRWSGFSGGAIECETAENTEECIAKIMKGEADAMSLDGGYLYIAGKCGLVPVLAENYKTEGESCKNTPEKGYLAVAVVKTSDANINWNNLKDKKSCHTAVDRTAGWNIPMGLLYSKINNCKFDEFFSAGCAPGSPRNSSLCALCIGSEKGTGKECVPNSNERYYGYTGAFRCLVEKGDVAFVKDQTVIQNTDGNNNEAWAKNLKKENFEVLCKDGTRKPVTDAENCHLARGPNHAVVSRKDKATCVEKILNKQQDDFGKSVTDCTSNFCLFQSNSKDLLFRDDTKCLASIAKKTYDSYLGDDYVRAMTNLRQCSTSKLLEACTFHKP
effect on cardiac differentiation, phase 2 medium (H9 hESC): either did not further enhance differentiation or had negative effects on differentiation | effect on cardiac differentiation, phase 3 medium (H9 hESC): Neither transferrin, L-ascorbic acid, lipids or NEAA enhanced this phase of differentiation | effect on cardiac differentiation, phase 4 medium (H9 hESC; supplement in d4 onwards medium): not required

B2: BMP6: growth factor titrated between 1-100 ng mL-1 (protein, UniProt P22004 375-513, looked up)
Bone morphogenetic protein 6: SASSRRRQQSRNRSTQSQDVARVSSASDYNSSELKTACRKHELYVSFQDLGWQDWIIAPKGYAANYCDGECSFPLNAHMNATNHAIVQTLVHLMNPEYVPKPCCAPTKLNAISVLYFDDNSNVILKKYRNMVVRACGCH
effect on cardiac differentiation, phase 2 medium (H9 hESC): none were found to have the same potency as BMP4

B3: NODAL: growth factor titrated between 1-100 ng mL-1 (protein, UniProt Q96S42 238-347, looked up)
Nodal homolog: HHLPDRSQLCRKVKFQVDFNLIGWGSWIIYPKQYNAYRCEGECPNPVGEEFHPTNHAYIQSLLKRYQPHRVPSTCCAPVKTKPLSMLYVDNGRVLLDHHKDMIVEECGCL
effect on cardiac differentiation, phase 2 medium (H9 hESC): none were found to have the same potency as BMP4

B4: DKK1: additional supplement to serum-free d2-d4 medium (protein, UniProt O94907 32-266, looked up)
Dickkopf-related protein 1: TLNSVLNSNAIKNLPPPLGGAAGHPGSAVSAAPGILYPGGNKYQTIDNYQPYPCAEDEECGTDEYCASPTRGGDAGVQICLACRKRRKRCMRHAMCCPGNYCKNGICVSSDQNHFRGEIEETITESFGNDHSTLDGYSRRTTLSSKMYHTKGQEGSVCLRSSDCASGLCCARHFWSKICKPVLKEGQVCTKHRRKGSHGLEIFQRCYCGEGLSCRIQKDHHQASNSSRLHTCQRH
effect on cardiac differentiation, xeno- and serum-free d2-d4 medium (H9 hESC; supplement in serum-free d2-d4 medium): did not further enhance differentiation

B5: TDGF1: growth factor titrated between 1-100 ng mL-1 (protein, UniProt P13385 31-150, looked up)
Protein Cripto: LGHQEFARPSRGYLAFRDDSIWPQEEPAIRPRSSQRVPPMGIQHSKELNRTCCLNGGTCMLGSFCACPPSFYGRNCEHDVRKENCGSVPHDTWLPKKCSLCKCWHGQLRCFPQAFLPGCD
effect on cardiac differentiation, phase 2 medium (H9 hESC): none were found to have the same potency as BMP4

B6: BMP4: bone morphogenic protein 4, mesodermal morphogen growth factor (protein, UniProt P12644 293-408, looked up)
Bone morphogenetic protein 4: SPKHHSQRARKKNKNCRRHSLYVDFSDVGWNDWIVAPPGYQAFYCHGDCPFPLADHLNSTNHAIVQTLVNSVNSSIPKACCVPTELSAISMLYLDEYDKVVLKNYQEMVVEGCGCR
most effective BMP4 concentration (iPS(IMR90)-1 hiPSC): 5 ng/mL | most effective BMP4 concentration (H9 hESC; d0-d2): 25 ng/mL | effect on cardiac differentiation, phase 3 medium (H9 hESC): did not further enhance this phase; also recorded: did not enhance cardiac differentiation

B7: activin A: growth factor titrated between 1-100 ng mL-1 (protein, UniProt P08476 311-426, looked up)
Inhibin beta A chain: GLECDGKVNICCKKQFFVSFKDIGWNDWIIAPSGYHANYCEGECPSHIAGTSGSSLSFHSTVINHYRMRGHSPFANLKSCCVPTKLRPMSMLYYDDGQNIIKKDIQNMIVEECGCS
effect on cardiac differentiation, phase 2 medium (H9 hESC): none were found to have the same potency as BMP4

From patent publication US20130136721A1, “Compositions and Methods of Generating a Differentiated Mesodermal Cell” (THE JOHNS HOPKINS UNIVERSITY, priority 2010, published 2013)
